Drawing on publication PMC6255812, “Structural basis for activation of plasma-membrane Ca^2+-ATPase by calmodulin” (Communications Biology, 2018), this text covers Kd for two molecules.

The target of assay [1] is T1, fluorescein-labeled CaM (CaM7 from A. thaliana) (A. thaliana, UniProt P59220 1-149, Alexa Fluor 488 C5 maleimide label (the paper also calls it fluorescein-labeled and FITC-labeled); site not stated).
T1 construct: calmodulin 7 (CaM7), A. thaliana; Same protein as m2 with a thiol-reactive fluorophore; also called FITC-labeled CaM; source: E. coli BL21 Gold (DE3), purified (HiTrap Phenyl HP), labelled, PD10 column
The assay is described as follows: fluorescence polarisation; fluorescence anisotropy; full-length ACA8 in POPC nanodiscs titrated into 15 nM labelled CaM; 20 °C; 30 mM Tris pH 8.0, 150 mM NaCl, 2 mM CaCl2, 0.5 mM TCEP; one-site model; apparent. The conditions noted are these: both partners purified. (In general: Fluorescence polarisation rises when a labelled molecule tumbles more slowly, as on binding a larger partner.)

Assay [2] deals with T2, ACA8core (core of ACA8, residues 131-1074, construct lacking the regulatory domain) (UniProt Q9LF79 131-1074).
T2 construct: Embedded in MSP1D1/POPC nanodiscs in the assay; also called core enzyme; ACA8 mutant lacking the regulatory domain
T2 sequence (looked up): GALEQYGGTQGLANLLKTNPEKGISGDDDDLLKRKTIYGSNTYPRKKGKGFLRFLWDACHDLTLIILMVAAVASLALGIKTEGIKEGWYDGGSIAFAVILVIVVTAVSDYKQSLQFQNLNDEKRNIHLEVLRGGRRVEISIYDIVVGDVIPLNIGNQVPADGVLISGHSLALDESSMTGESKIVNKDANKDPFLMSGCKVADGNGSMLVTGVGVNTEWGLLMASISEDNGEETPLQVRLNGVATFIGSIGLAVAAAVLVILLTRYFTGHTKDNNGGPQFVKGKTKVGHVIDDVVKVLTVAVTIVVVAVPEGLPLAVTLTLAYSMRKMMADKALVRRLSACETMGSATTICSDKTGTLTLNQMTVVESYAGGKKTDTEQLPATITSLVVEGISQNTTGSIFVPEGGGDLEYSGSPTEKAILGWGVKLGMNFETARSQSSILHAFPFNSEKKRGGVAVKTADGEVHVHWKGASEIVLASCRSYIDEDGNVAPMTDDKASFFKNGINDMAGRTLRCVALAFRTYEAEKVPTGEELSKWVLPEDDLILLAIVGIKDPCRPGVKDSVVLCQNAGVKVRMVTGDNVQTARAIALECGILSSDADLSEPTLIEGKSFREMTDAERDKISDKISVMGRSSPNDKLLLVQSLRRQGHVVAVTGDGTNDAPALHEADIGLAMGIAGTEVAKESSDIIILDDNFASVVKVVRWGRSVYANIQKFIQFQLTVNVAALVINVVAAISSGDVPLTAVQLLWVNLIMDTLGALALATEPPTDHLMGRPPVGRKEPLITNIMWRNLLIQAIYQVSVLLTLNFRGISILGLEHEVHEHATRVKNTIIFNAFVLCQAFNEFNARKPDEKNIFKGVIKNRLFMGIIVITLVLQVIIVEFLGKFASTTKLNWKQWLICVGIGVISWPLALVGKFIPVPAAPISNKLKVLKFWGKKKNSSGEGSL
The assay can be described thus: fluorescence polarisation; fluorescence anisotropy; 25 µM ACA8core in POPC nanodiscs titrated into 50 nM labelled ACA8RD; 20 °C; 30 mM Tris pH 8.0, 150 mM NaCl, 2 mM CaCl2, 0.5 mM TCEP; one-site model. The conditions noted are these: both partners purified.

B1: full-length ACA8 (plasma-membrane Ca2+-ATPase ACA8) (enzyme)
chain: MTSLLKSSPGRRRGGDVESGKSEHADSDSDTFYIPSKNASIERLQQWRKAALVLNASRRFRYTLDLKKEQETREMRQKIRSHAHALLAANRFMDMGRESGVEKTTGPATPAGDFGITPEQLVIMSKDHNSGALEQYGGTQGLANLLKTNPEKGISGDDDDLLKRKTIYGSNTYPRKKGKGFLRFLWDACHDLTLIILMVAAVASLALGIKTEGIKEGWYDGGSIAFAVILVIVVTAVSDYKQSLQFQNLNDEKRNIHLEVLRGGRRVEISIYDIVVGDVIPLNIGNQVPADGVLISGHSLALDESSMTGESKIVNKDANKDPFLMSGCKVADGNGSMLVTGVGVNTEWGLLMASISEDNGEETPLQVRLNGVATFIGSIGLAVAAAVLVILLTRYFTGHTKDNNGGPQFVKGKTKVGHVIDDVVKVLTVAVTIVVVAVPEGLPLAVTLTLAYSMRKMMADKALVRRLSACETMGSATTICSDKTGTLTLNQMTVVESYAGGKKTDTEQLPATITSLVVEGISQNTTGSIFVPEGGGDLEYSGSPTEKAILGWGVKLGMNFETARSQSSILHAFPFNSEKKRGGVAVKTADGEVHVHWKGASEIVLASCRSYIDEDGNVAPMTDDKASFFKNGINDMAGRTLRCVALAFRTYEAEKVPTGEELSKWVLPEDDLILLAIVGIKDPCRPGVKDSVVLCQNAGVKVRMVTGDNVQTARAIALECGILSSDADLSEPTLIEGKSFREMTDAERDKISDKISVMGRSSPNDKLLLVQSLRRQGHVVAVTGDGTNDAPALHEADIGLAMGIAGTEVAKESSDIIILDDNFASVVKVVRWGRSVYANIQKFIQFQLTVNVAALVINVVAAISSGDVPLTAVQLLWVNLIMDTLGALALATEPPTDHLMGRPPVGRKEPLITNIMWRNLLIQAIYQVSVLLTLNFRGISILGLEHEVHEHATRVKNTIIFNAFVLCQAFNEFNARKPDEKNIFKGVIKNRLFMGIIVITLVLQVIIVEFLGKFASTTKLNWKQWLICVGIGVISWPLALVGKFIPVPAAPISNKLKVLKFWGKKKNSSGEGSL
notes: Integral membrane protein; in most experiments embedded in MSP1D1 nanodiscs (POPC, POPC/POPG, POPC/soy-PI or deuterated stealth nanodiscs); The nanodisc belt protein is a carrier and not a partner; also called apo-ACA8; ACA8-ND; source: used DDM-solubilised or reconstituted in MSP1D1 nanodiscs (Superdex200)
Consider B1, for which the Kd in assay [1] was determined as 0.018 µM.

B2: fluorescein-labeled regulatory domain of ACA8 (ACA8RD, residues 1-130) (domain or fragment)
chain: CMTSLLKSSPGRRRGGDVESGKSEHADSDSDTFYIPSKNASIERLQQWRKAALVLNASRRFRYTLDLKKEQETREMRQKIRSHAHALLAANRFMDMGRESGVEKTTGPATPAGDFGITPEQLVIMSKDHNS
modifications: Alexa Fluor 488 C5 maleimide (the paper also calls it fluorescein) for labelling of the introduced cysteine
notes: a cysteine introduced right before the first residue of the regulatory domain, for site specific labeling with thiol-reactive probes; ACA8 regulatory domain, residues 1-130; also called labeled RD; not shown: His6, N-terminal, cleaved; lipoamyl domain, N-terminal, cleaved
For the molecule B2, the Kd in assay [2] worked out at 1.7 µM.
